Source: US11505576B2, “Polypeptides based on a scaffold” (AFFIBODY AB, priority 2018, dated 2022)

Test: Circular dichroism spectroscopy analysis (CD spectra, variable temperature measurement, refolding)
Format: physicochemical
Description: The respective Y variant was diluted to 0.5 mg/ml in PBS. A CD spectrum at 250-195 nm was obtained at 20° C. In addition, a variable temperature measurement (VTM) was performed to determine the melting temperature (Tm). In the VTM, absorbance was measured at 221 nm while the temperature was raised from 20° C. to 90° C. with a temperature gradient of 5° C./min. A new CD spectrum was obtained at 20° C. after the heating procedure, in order to study the refolding ability of the Y variants. The CD measurements were performed on a Jasco J-810 spectropolarimeter (Jasco Scandinavia AB) using a cell with an optical path length of 1 mm.
Produced Y variants were subjected to CD and SPR analyses according to the methods described in Example 1.
The Y variants were cloned, produced and characterized according to the general methods described in Example 1. Produced Y variants with point mutations and/or N-terminal or C-terminal extensions were subjected to CD and SPR analyses as described in Example 1.
Produced Y variants were subjected to CD and SPR analyses according to the methods described in Example 1. In addition, CD spectra of selected IL-6 binding variants were also recorded at 60, 70, 80 and 90° C.
The Y variants were cloned, produced and characterized according to the general methods described in Example 1. Produced Y variants with point mutations were subjected to CD and SPR analyses as described in Example 1. In addition, CD spectra of the IL-6 binding variants were also recorded at 60, 70, 80 and 90° C.

[1] = Table 2, Ylib001Naive.I selection, MGSSHHHHHHGSS-[Y#####]-ASGSVD, 0.5 mg/ml in PBS, 221 nm, 20-90° C.
[2] = Table 3, mutation study 1, MGSSHHHHHHGSS-[Y#####]
[3] = Table 4, mutation study 2, MGSSHHHHHHGSS-[Y#####]

Substance	Tm [1]	Tm [2]	Tm [3]
Y00001: C4 binding Y variant from Ylib001Naive.I, SEQ ID NO:1 (LAEAKEAAIAELDSKGINEAIISKIERAESVEEVEYWKEEILAQLP; Engineered C4 binding Y variant)	61 °C	57 °C	
Y00004: C4 binding Y variant from Ylib001Naive.I, SEQ ID NO:4 (LAEAKEAANAELDSYGVDADLIKKIERAESVEEVEFWKEEILAHLP; Engineered C4 binding Y variant)	45 °C		
Y00005: C4 binding Y variant from Ylib001Naive.I, SEQ ID NO:5 (LAEAKEAAIAELDSAGVNEVQKSKIEQASSVEEVEFWKEEILAQLP; Engineered C4 binding Y variant)	60 °C		
Y00006: C4 binding Y variant from Ylib001Naive.I, SEQ ID NO:6 (LAEAKEAAIAELDSYGVVANLKKKIEIAKSVEQVEFWKEEILAQLP; Engineered C4 binding Y variant)	49 °C		
Y00262: C4 binding Y variant, Y00001 with S23K, SEQ ID NO:18 (LAEAKEAAIAELDSKGINEAIIKKIERAESVEEVEYWKEEILAQLP; Engineered C4 binding Y variant)		61 °C	61 °C
Y00282: C4 binding Y variant, Y00262 with I17V, SEQ ID NO:19 (LAEAKEAAIAELDSKGVNEAIIKKIERAESVEEVEYWKEEILAQLP; Engineered C4 binding Y variant)			61 °C
Y00283: C4 binding Y variant, Y00262 with N18S, SEQ ID NO:20 (LAEAKEAAIAELDSKGISEAIIKKIERAESVEEVEYWKEEILAQLP; Engineered C4 binding Y variant)			61 °C
Y00284: C4 binding Y variant, Y00262 with E19A, SEQ ID NO:21 (LAEAKEAAIAELDSKGINAAIIKKIERAESVEEVEYWKEEILAQLP; Engineered C4 binding Y variant)			64 °C
Y00285: C4 binding Y variant, Y00262 with I22K, SEQ ID NO:22 (LAEAKEAAIAELDSKGINEAIKKKIERAESVEEVEYWKEEILAQLP; Engineered C4 binding Y variant)			57 °C
Y00286: C4 binding Y variant, Y00262 with E26Q, SEQ ID NO:23 (LAEAKEAAIAELDSKGINEAIIKKIQRAESVEEVEYWKEEILAQLP; Engineered C4 binding Y variant)			62 °C
Y00287: C4 binding Y variant, Y00262 with E35Q, SEQ ID NO:24 (LAEAKEAAIAELDSKGINEAIIKKIERAESVEEVQYWKEEILAQLP; Engineered C4 binding Y variant)			62 °C
Y00288: C4 binding Y variant, Y00262 with E39Q, SEQ ID NO:25 (LAEAKEAAIAELDSKGINEAIIKKIERAESVEEVEYWKQEILAQLP; Engineered C4 binding Y variant)			66 °C
Y00289: C4 binding Y variant, Y00262 with E35Q + E39Q, SEQ ID NO:26 (LAEAKEAAIAELDSKGINEAIIKKIERAESVEEVQYWKQEILAQLP; Engineered C4 binding Y variant)			65 °C
Y00290: C4 binding Y variant, Y00262 with E35Q + A43K, SEQ ID NO:27 (LAEAKEAAIAELDSKGINEAIIKKIERAESVEEVQYWKEEILKQLP; Engineered C4 binding Y variant)			69 °C
Y00291: C4 binding Y variant, Y00262 with E35Q + E39Q + A43K, SEQ ID NO:28 (LAEAKEAAIAELDSKGINEAIIKKIERAESVEEVQYWKQEILKQLP; Engineered C4 binding Y variant)			66 °C
